According to patent publication US20210292393A1 (published 2021):
Where a chain is given by its changes, count along the chain named.

B1: antibody 323 (antibody, V domains shown)
VH: QVQLVQSGAEVKKPGASVKVSCKVSGYTLTELSMHWVRQAPGKGLEWMGGFDPEDGETIYAQKFQGRVTMTEDTSTDTAYMELSSLRSEDTAVYYCATSTIFAPGGWFDPWGQGTLVTVSS
VL: QSALTQPASVSGSPGQSITISCTGTSSDVGSYNLVSWYQQHPGKAPKLMIYEVSKRPSGVSNRFSGSKSGNTASLTISGLQAEDEADYYCCSYAGSTHYVFGTGTKVTVL
B2: anti-SARS-CoV-2 antibody 292 (antibody, V domains shown)
VH: EVQLVESGGGLIQPGGSLRLSCAASGFTVSSNYMSWVRQAPGKGLEWVSVIYSGGSTYYADSVKGRFTISRDNSKNTLYLQMNSLRAEDTAVYYCARDLQGGGGPWGQGTLVTVSS
VL: AIQMTQSPSSLSASVGDRVTITCRASQGIRNDLGWYQQKPGKAPKLLIYAASSLQSGVPSRFSGSGSGTDFTLTISSLQPEDFATYYCLQDYNYPRTFGQGTKVEIKR
B3: anti-SARS-CoV-2 antibody 481 (antibody, V domains shown)
VH: B2 VH with Y58F, D98E, L99V, Q100A, G102T, G103Y, G104D, P105Y
VL: DIQMTQSPSSVSASVGDRVTITCRASQGISSWLAWYQQKPGKAPKLLIYAASSLQSGVPSRFSGSGSGTDFTLTISSLQPEDFATYYCQQANSFPGGTFGPGTKVDIKR
B4: anti-SARS-CoV-2 antibody 447 (antibody, V domains shown)
VH: B2 VH with I12V, L99K, Q100S, G101S, G103S
VL: B2 VL
B5: anti-SARS-CoV-2 antibody 483 (antibody, V domains shown)
VH: QVQLQESGPGLVKPSETLSLTCTVSGGSISSYYWSWIRQPPGKGLEWIGYIYYSGSTNYNPSLKSRVTISVDTSKNQFSLKLSSVTAADTAVYYCARAPEEKSSEIGELVGWGWFDPWGQGTLVTVSS
VL: not shown
B6: anti-SARS-CoV-2 antibody 462 (antibody, V domains shown)
VH: QVQLVESGGGVVQPGRSLRLSCAASGFTFSSYGMHWVRQAPGKGLEWVAVIWYDGNNKYYADSVKGRFTISRDNSKNTLYLQMNSLRAEDTAVYYCAKDPTWFGELPSYYYYGMDVWGQGTTVTVSS
VL: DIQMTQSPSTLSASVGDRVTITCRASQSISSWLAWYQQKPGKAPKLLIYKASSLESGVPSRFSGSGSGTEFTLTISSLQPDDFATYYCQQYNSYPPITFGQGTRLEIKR
B7: antibody 379 (antibody, V domains shown)
VH: QVQLQESGPGLVKPSQTLSLTCTVSGGSISSGGYYWSWIRQHPGKGLEWIGYIYYSGSTYYNPSLKSRVTISVDTSKNQFSLKLSSVTAADTAVYYCARGPLDFWSGYFRLRYFDSWGQGTLVTVSS
VL: QSALTQPASVSGSPGQSITISCTGTSSDVGGYNYVSWYQQHPGKAPKLMIYDVTNRPSGVSNRFSGSKSGNTASLTISGLQAEDEADYYCSSYTSSSTCVFGTGTKVTVL
B8: anti-SARS-CoV-2 antibody 488 (antibody, V domains shown)
VH: EVQLVESGGGLIQPGGSLRLSCAASGLTVSSNYMSWVRQAPGKGLEWVSVIYSGGSTYYADSVKGRFTISRDNSKNTLYLQMNSLRAEDTAVYYCARSPYGGNSWGQGTLVTVSS
VL: not shown
B9: antibody 365 (antibody, V domains shown)
VH: QVQLVESGGGVVQPGRSLRLSCAASGFNLSSYAMHWVRQASGKGLEWVSLISYDGSIKYYTDSVKGRFTVSGDNSKNTLFLQMNSLRPDDSALYYCVRGGVSGPNSFDMWGQGTTVTVSS
VL: DVVMTQSPLSLPVTLGQPASISCRSSQSLVYSDGNTYVNWFQQRPGQSPRRLIYKVSIRASGVPDRFSGSGSGTDFALKISRVEAEDVGVYYCMQGTHWPVTFGQGTKVEIK
B10: antibody 327 (antibody, V domains shown)
VH: B9 VH with S31N
VL: B9 VL with K55Q, V90I
B11: anti-SARS-CoV-2 antibody 555 (antibody, V domains shown)
VH: QVQLVQSGAEVKKPGSSVKVSCKASGGTFSNYAISWVRQAPGQGLEWMGRIIPILGIANYAQKFQGRVTITADKSTSTAYMELSSLRSEDTAVYYCARGYYEARHYYYYYAMDVWGQGTAVTVSS
VL: not shown
B12: anti-SARS-CoV-2 antibody 506 (antibody, V domains shown)
VH: QITLKESGPTLVKPTQTLTLTCTFSGFSLSTSGVGVGWIRQPPGKALEWLALIYWDDDKRYSPSLKSRLTITKDTSKNQVVLTMTNMDPVDTATYYCAHHSLSSIFDYWGQGTLVTVSS
VL: QSALTQPASVSGSPGQSITISCTGTSSDVGDYNYVSWYQQHPGKAPKLMIYEVSNRPSGVSNRFSGSKSGNTASLTISGLQAEDEADYYCSSYTSSSTVFGGGTKLTVLG
B13: antibody 380 (antibody, V domains shown)
VH: QVQLVESGGGVVQPGRSLRLSCAASGFTLKNYGMHWVRQAPGKGLEWVIVLSFDGSDEYKADSVRGRFTVSRDNSKNTLFLQMNSLRPDDTAVYYCAREQPTMIEGGRGPFDIWGQGTMVTVSS
VL: EVVMTQSPATLSVSPGDRATLSCRASQGVNSNLAWYQQKPGQAPRLLIYAASTRATGIPARFSASGSGTHFTLTISSLQSEDFAVYYCLQYNNWPPWTFGQGTKLEIK
B14: antibody 326 (antibody, V domains shown)
VH: QITLKESGPTLVKPTQTLTLTCTFSGFSLNTSGVGVGWIRQPPGKALEWLSLIFWNDDKRYSPSLRSRLTITKDTSKNQVVLTMTNMDPVDTATYFCAHRNSGWSLKFDSWGQGSLVTVSA
VL: DIQMTQSPSSVSASVGDRVTITCRARQGISSWLVWYQQKPGKAPKLLIFGASSLQSGVPSRFNASGTGTEFTLTISSLQPEDFATYYCQQADSFPITFGQGTRLEIK
B15: antibody 340 (antibody, V domains shown)
VH: QVQLVQSGAEVKKPGASVKVSCKASGYTFTSYDINWVRQATGQGLEWMGWMNPNSGNTGYAQKFQGRVTMTRNTSISTAYMELSSLRSEDTAVYYCARGRYCTGGVCWGDWYFDLWGRGTLVTVSS
VL: QSVLTQPPSVSGAPGQRVTISCTGSSSNIGAGYDVHWYQQLPGTAPKFLIYGNSNRPSGVPDRFSGSKSGTSASLAITGLQAEDEADYYCQSYDSSLSGPVFGGGTKLTVL
B16: antibody 324 (antibody, V domains shown)
VH: QVQLQESGPGLVKPSGTLSLTCAVSGGSISSSNWWSWVRQPPGKGLEWIGEIYHSGSTNYNPSLKSRVTISVDNSKNQFSLKLSSVTAADTAVYYCARESVAAAGISYYYYGMDVWGQGTTVTVSS
VL: EIVLTQSPGTLSLSPGERATLSCRASQSVSGRYLAWYQQKPGQAPRLLIYGASSRATGIPDRFSGSGSGTDFTLTISRLEPEDFAVYYCQHYGSSPGTFGQGTRLEIK
B17: antibody 372 (antibody, V domains shown)
VH: QVQLVESGGGVVQPGRSLRLSCAASGFTFSSYAMHWVRQAPGKGLEWVAVISYDGSNKYYADSVKGRFTISRDNSKNTLYLQMNSLRAEDTAVYYCARDLGTSALLWFGELFLNYGMDVWGQGTTVTVSS
VL: QSALTQPRSVSGSPGQSVTISCTGTSSDVGGYNYVSWYQQHPGKAPKLMIYDVSKRPSGVPDRFSGSKSGNTASLTISGLQAEDEADYYCCSYAGSPILVFGGGTKLTVL
B18: anti-SARS-CoV-2 antibody 419 (antibody, V domains shown)
VH: QVQLVQSGAEVKKPGASVKVSCKASGYTFTSYYMHWVRQAPGQGLEWMGIINPSGGSTSYAQKFQGRVTMTRDTSTSTVYMELSSLRSEDTAVYYCARDWTQSSGYDYYYGLDVWGQGTTVTVSS
VL: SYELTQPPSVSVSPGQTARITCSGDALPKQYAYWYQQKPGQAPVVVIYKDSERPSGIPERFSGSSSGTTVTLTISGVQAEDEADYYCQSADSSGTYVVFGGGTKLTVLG
B19: antibody 333 (antibody, V domains shown)
VH: QVHLVESGGGVVLPGRSLRLSCSASQFIFSNYDMHWVRQSPGMGLEWVAGISSDGSDKYYIDSVRGRFTISRDNAKNTLFLQMNSLTTEDTAVYSCAKGGGKFGQYWGRGTLVTVSS
VL: AIQMTQSPSSLSASVGDRVTITCRASQVIRNDLAWFQQKPGEAPNLLVYSASNLQSGVPSRFSGSGSGTDFTLTISSLQPEDFATYYCLQDYSYPYTFGQGTKLDMK
B20: anti-SARS-CoV-2 antibody 364 (antibody, V domains shown)
VH: EVQLVESGGGLVQPGRSLRLSCTASGFTFGDYAMSWFRQAPGKGLEWVGFIRSKAYGGTTEYAASVKGRFTISRDDSKSIAYLQMNSLKTEDTAVYYCTRFGIDYDYIWGSYRYTTLFDYWGQGTLVTVSS
VL: not shown
B21: anti-SARS-CoV-2 antibody 408 (antibody, V domains shown)
VH: QVQLVESGGGVVQPGRSLRLSCAASGFTFSSYAMHWVRQAPGKGLEWVAVISYDGSNKYYADSVKGRFTISRDNSRNTLYLQMNSLRAEDTAVYYCAKGADTPHYSGYDFLSVGYYYYGMDVWGQGTTVTVSS
VL: DIQMTQSPSSLSASVGDRVTITCRASQSISSYLNWYQQKPGKAPKLLIYAASSFQSGVPSRFSGSRSGTDFTLTISSLQPEDFATYYCQQSYSAPFTFGPGTKVDIKR
B22: antibody 329 (antibody, V domains shown)
VH: EVQLVESGGGLVQPGGSLRLSCAASGFTFSSYWMHWVRQAPGKGLVWVSRINSDGSSTSYADSVKGRFTISRDNAKNTLYLQMNSLRAEDTAVYYCAREGIVATITLDYWGQGTLVTVSS
VL: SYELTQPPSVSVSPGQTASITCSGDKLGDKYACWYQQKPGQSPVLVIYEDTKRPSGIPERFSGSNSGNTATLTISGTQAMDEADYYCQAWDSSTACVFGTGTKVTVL
B23: antibody 331 (antibody, V domains shown)
V domain 1: QITLKESGPTLVKPTETLTLTCSFSGFSLTKTGEAAGWIRQAPGRALEWVTVIFWDDDKRYSPSLQNRISVTKDTSKNQVVLRMTNVARFDTGTYFCWAMGGPGKEYFGQGTLVAVSS
V domain 2: QSVLTQPPSVSGAPGQRVTISCTGTSSSIGPYSDVHWYQHVSGKAPRLLIFGNSNRPSGVPDRFSGSKSGTSASLVIAGLQAEDEADYYCQSYDSSLGEIYVFGTGTTVTVL
B24: antibody 339 (antibody, V domains shown)
V domain 1: B23 V domain 1 with K31R, N67S, I69L, S70T, R83T, G93A, L113Q
V domain 2: B23 V domain 2

Columns and labels:
[1] = molecular target: SARS-CoV-2 spike (S) protein, full length, wild type, expressed on the surface of CHO cells (SARS-CoV-2, UniProt P0DTC2 14-1273)
[2] = molecular target: SARS-CoV-2 full-length spike protein on pseudotyped lentivirus (SARS-CoV-2, UniProt P0DTC2 14-1273); experiment: cell-based or functional assay
SARS-CoV spike protein = SARS-CoV spike protein (SARS-CoV, UniProt P59594 14-1190)

| Binder | median fluorescence fold over isotype [1] | IC50 (pseudoneutralization) [2] | IC80 (pseudoneutralization) [2] | median fluorescence intensity, fold over isotype control (SARS-CoV spike protein) |
| --- | --- | --- | --- | --- |
| B1 | 20.6 fold over isotype | – | – | – |
| B2 | – | > 50 µg/mL | > 50 µg/mL | – |
| B3 | – | 17.2 µg/mL | > 50 µg/mL | – |
| B4 | – | > 50 µg/mL | > 50 µg/mL | – |
| B5 | – | > 50 µg/mL | > 50 µg/mL | – |
| B6 | – | > 50 µg/mL | > 50 µg/mL | – |
| B7 | – | – | – | 5.9 fold over isotype |
| B8 | – | 3.52 µg/mL | > 50 µg/mL | – |
| B9 | 10.7 fold over isotype | – | – | – |
| B10 | 9.54 fold over isotype | – | – | – |
| B11 | – | 0.38 µg/mL | 1.4 µg/mL | – |
| B12 | – | > 50 µg/mL | > 50 µg/mL | – |
| B13 | – | – | – | 1.21 fold over isotype |
| B14 | 10.1 fold over isotype | – | – | – |
| B15 | 33.2 fold over isotype | – | – | – |
| B16 | 9.44 fold over isotype | – | – | – |
| B17 | – | – | – | 1.08 fold over isotype |
| B18 | – | > 50 µg/mL | > 50 µg/mL | – |
| B19 | 1.27 fold over isotype | – | – | – |
| B20 | – | > 50 µg/mL | > 50 µg/mL | – |
| B21 | – | > 50 µg/mL | > 50 µg/mL | – |
| B22 | 9.41 fold over isotype | – | – | – |
| B23 | 20.1 fold over isotype | – | – | – |
| B24 | 21.2 fold over isotype | – | – | – |
